Experimental data taken from US10414821 (dated 2019).

Tests used:
PD-1 protein = PD-1 protein (UniProt Q15116 25-167); test: blocking ELISA (PD-1/PD-L1)
[1] = biological target: purified recombinant PD-1 fusion protein (Sino Biological Inc, Cat #: 10377-H08H) (human, UniProt Q15116 25-170); test: ELISA
Sequence of purified recombinant PD-1 fusion protein (Sino Biological Inc, Cat #: 10377-H08H) (Q15116 25-170): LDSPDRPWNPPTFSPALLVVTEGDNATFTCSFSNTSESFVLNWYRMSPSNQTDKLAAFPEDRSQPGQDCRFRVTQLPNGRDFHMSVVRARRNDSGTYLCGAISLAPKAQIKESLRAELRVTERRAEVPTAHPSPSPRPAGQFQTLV

Sequence of PD-1 protein (Q15116 25-167): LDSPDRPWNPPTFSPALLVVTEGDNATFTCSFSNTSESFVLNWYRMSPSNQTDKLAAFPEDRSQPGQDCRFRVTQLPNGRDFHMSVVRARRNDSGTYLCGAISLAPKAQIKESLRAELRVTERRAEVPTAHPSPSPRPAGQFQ

B1: BA08-1 (antibody, V domains shown)
VH: QVQLVQSGAEVKKPGASVKVSCKASGYTFTSYYMYWVRQAPGQGLEWMGGVNPSNGGTNFNEKFKSRVTITADKSTSTAYMELSSLRSEDTAVYYCARRDYRYDMGFDYWGQGTTVTVSS
VL: EIVLTQSPATLSLSPGERATISCRASKGVSTSGYSYLHWYQQKPGQAPRLLIYLASYLESGVPARFSGSGSGTDFTLTISSLEPEDFATYYCQHSRELPLTFGTGTKVEIK
IC50 (PD-1 protein): 0.288 nM | EC50 [1]: 0.0371 nM
